The text below walks through data of the supplement of paper PMC12042874.

± gives the uncertainty stated by the source.

This data set is described as follows: amyloid nucleation score (Sup35N fusion, yeast selection) (log enrichment); library NNK3; higher = more nucleation; inactive = no reads after selection. The method in brief: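 Sup35N fusions to peptides of 20 random codons were expressed in psi-negative yeast, induced 24 hours with 100 μM copper sulfate, and grown 7 days at 30°C on medium lacking adenine and uracil. Input and output plasmid inserts were sequenced by Illumina. The nucleation score is the DiMSum log enrichment of output over input reads, centred on the mode score of non-aggregating sequences. Sequences with under 100 input reads were excluded.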
As to YLIGLRCWCSL, the amyloid nucleation score entry was “inactive”. As for TSTELFRSGSVLRKPRMSSA, the amyloid nucleation score was -0.255 ± 1.1. On to WSILL, for which the amyloid nucleation score result was “inactive”.

Turning to LGLISIAESRRLSRSDSMWW, the amyloid nucleation score result was “inactive”. The result for SVRRYRSYLVLRRRTGHDRN reads “inactive”; that for QYLHAGGHVIVGTWYEVNMG, 1.36 ± 0.16; that for RYRIPTSFL, “inactive”. As to RIVSRWCDNLNHTDCECCVC, the amyloid nucleation score entry is “inactive”. Next, NTFCGVEISSYIGAARKCLK: “inactive”; HYLLACSYDRFFSRSSAYSL: “inactive”; SQHHPSGSSMWGKWIMLDPR: “inactive”. Next, LVIASGRVIVIVCYV: “inactive”; PRSEVTRTLYIFSVWHQMRI: “inactive”; EKVSYFSNNVVLIVVINRVC: “inactive”. The result for RYDCRQPIAEFVVWAV reads “inactive”; that for INFHMS, “inactive”. Consider LEYAVVKSHQREESSSTCLG, for which the amyloid nucleation score result was “inactive”. For the substance VLRLFDTNPHDSREVAYFYF, the amyloid nucleation score entry is “inactive”. The result for LVRSNGC reads “inactive”; that for RYNGSTTGSRLYMLLSMSLN, “inactive”. For the substance FQKLEVNKLGIIWNHVLTRK, the amyloid nucleation score entry is “inactive”. As for RGKLFLSLLIVYFTLFLSVM, the amyloid nucleation score entry is “inactive”. On to FCVPKCYSHWYLVFS, for which the amyloid nucleation score was 1.03 ± 0.12. As for LCSDLVFHNR, the amyloid nucleation score entry was “inactive”. For LFIFNGCAM, the amyloid nucleation score is 2.31 ± 0.057. Next, RRLCRYCDVILRNFMHKIQW: “inactive”; DGRRSMATCWIHSNCPWRAS: “inactive”. MSSNFTRS: the amyloid nucleation score result was “inactive”.

As for AMNNLLFTLYVF, the amyloid nucleation score result is “inactive”. Next, LFEYGYCMIGIQLLKRY: “inactive”; RKPHMTL: “inactive”. In the case of GFSLKGLNSNDTRSLSHKLG, the amyloid nucleation score entry was “inactive”. Next, EIVVYFEFLCYFVLEVLKSL: “inactive”; RYNLSFFLYFSQANNHQNLF: “inactive”. With TVYIAYTCVAVRSHSEHLFD, the amyloid nucleation score entry is “inactive”.

Consider ACLLKSYFSRYNEKPTCYVT, for which the amyloid nucleation score entry is “inactive”. On to LDTDWLGYSSLP, for which the amyloid nucleation score entry was “inactive”. The result for KMWCNGMAISLHVRRLCQV reads “inactive”; that for MKCFSVSVLCNLGSFLCEVT, 0.146 ± 0.9.

With FKSLHTGVQRNTLCARSRTF, the amyloid nucleation score result was “inactive”. Next, ADKIRIRFY: “inactive”; ICDDMVGVC: “inactive”. The result for PVNFFKKFMSAMEVRYHRTK reads -0.046 ± 0.38; that for RNTDLL, “inactive”; that for QISEFKDVLLCVCVKISLGR, 1.7 ± 0.09. Next, TPLADN: -0.224 ± 0.73; YMHGVWRWVVYRIFLYGRQA: “inactive”. On to LRGGMIEPNTRRYS, for which the amyloid nucleation score stood at 1 ± 0.15. The result for LTLLCSDECWVFMSMGDRTF reads “inactive”. The result for GFYNFVFSCASGYRCTGVMG reads -0.357 ± 0.59; that for FPDIDLLLLWTHQRDRRSWF, 0.018 ± 0.45. In turn, NWVLARIWW gave an amyloid nucleation score of 0.755 ± 0.18. With CCLYTVNNSDSLVNTTVGVG, the amyloid nucleation score result was “inactive”. For HIVSRP, the amyloid nucleation score entry is “inactive”. Next, AYSYRGHGLGMDGAGPVCLI: “inactive”. With AYNQSRILGVDLACRNELLC, the amyloid nucleation score result is “inactive”. Next, EWCSMYILSC: “inactive”; RKFDPSISGSCWNVGISCVV: “inactive”. The result for SVNSGVMIAEPDLRWCGSAT reads “inactive”; that for AWTTQPPYMFSSGFWNFYVC, “inactive”. The result for CQPSF reads “inactive”. With FLTHVHQINADAFYAIL, the amyloid nucleation score came to 1.84 ± 0.11.

Consider TVVDLLVRYSAIGSCVFSVT, for which the amyloid nucleation score entry is “inactive”. Next, TFVLRDTDVCKCSSYKRPNF: “inactive”; DNKVFTLSNQA: “inactive”; VWLILRFMWAVVRTNRSNLD: “inactive”.

Take ASDNWESRPSRSSDKSGVIG: the amyloid nucleation score entry was “inactive”.

For the substance SMSPFRKFLTFWNMGPKRTL, the amyloid nucleation score is -1.06 ± 2.4.

Consider FLFWILDALLLQVFQLSPHK, for which the amyloid nucleation score entry was “inactive”.

In turn, LFRFGI showed an amyloid nucleation score of -0.005 ± 0.22.

On to IGSPSHLYKYHCVGFRVSSQ, for which the amyloid nucleation score result is “inactive”. In the case of FSVPLVCDIYCLYTDVEYRH, the amyloid nucleation score is 2.53 ± 0.059. The result for IMYFMLMLGSSRMSFTKLMG reads “inactive”; that for NYFGLWGCHTCITCYPVTLV, 1.29 ± 0.13.

Take RTNDHVNW: the amyloid nucleation score result is “inactive”. Next, KRDWHLVTMG: -0.134 ± 0.32; AFKWSRSCGMWLTDIGAWW: “inactive”; ECTDFYGTGTFCFGSWRLSY: 1.76 ± 0.064.

With SYQWWLCFFSLFFIGGDFRT, the amyloid nucleation score entry is “inactive”.

Take VGRYPSLVSLNDTCNDVTRI: the amyloid nucleation score entry was “inactive”. On to IWGMIFIGKSSYDISDYVCH, for which the amyloid nucleation score result is “inactive”. Next, GVSRGLSLPRSLKYRYCCAV: “inactive”. Next, WKSPVYAYVWNSGPFRRQGK: “inactive”; LSIGFNLWSKLKYSRKVSGM: “inactive”. Turning to YLLLARIEKRFGFFVISDPG, the amyloid nucleation score result was “inactive”. Take RTSLNGTLGVLSRYGWNISE: the amyloid nucleation score entry is “inactive”. Next, RFEFMGFSYPCHLTWLLVGY: “inactive”; STYFLLILFEGKCFNCSVGK: 1.38 ± 0.077.

As for RYLIVVFASC, the amyloid nucleation score result is “inactive”. Next, ILKKRFRMVPLK: “inactive”. Turning to FLYRDSSCRLSLM, the amyloid nucleation score entry was “inactive”. Next, EAHGIQLMMGLFAFR: 1.11 ± 0.15. Next, RLPLLTTKSGMSDTYSAP: “inactive”; SNPLYGSDMQVHYF: 1.16 ± 0.14. Substance QNRFDLPGMSQRSTHDRAPS had an amyloid nucleation score of -0.03 ± 0.73. The result for YRVKPFKWKYARRRLVIRWV reads “inactive”. The result for LVIIQCSNRGVSKYRLVGTD reads 1.82 ± 0.071; that for HTRLAPWSMDEGRAV, “inactive”; that for KKYVVFNGCSPYM, “inactive”.

Take YSVCVNAWGLSTLSTLWCTY: the amyloid nucleation score result is “inactive”.

Regarding TRLLWSAEFGEGNDMTSLKF, the amyloid nucleation score was 0.073 ± 0.87. In the case of TLALSKSMMYQMVINPAIY, the amyloid nucleation score result was “inactive”.

On to WVCLWVIVLYHIPVLNKLLS, for which the amyloid nucleation score entry is “inactive”. Next, DCCGLVAYNLVFRICGACLG: “inactive”. Next, VQVIRFFWIMGLTGWTRELP: “inactive”.

For the substance VVDFSTYWY, the amyloid nucleation score entry is “inactive”. The result for MFDLYN reads “inactive”; that for LCECR, “inactive”. With KNKYQLN, the amyloid nucleation score result is “inactive”.

The substance PYKTWTINVLLWNLSCTFLN returned an amyloid nucleation score of 1.49 ± 0.096. Regarding RPTTIGINNDW, the amyloid nucleation score result is “inactive”.

On to LKVVYGSLALPSFKFIWQAE, for which the amyloid nucleation score result was “inactive”. The result for FGEYVIRMSNCTLPKIMVIP reads “inactive”; that for MYTCLVPSSLK, “inactive”; that for PGIIGTSNSFYQCVMWQVFG, 2.13 ± 0.063. Next, PYHGSSMLKIRVRGD: “inactive”; IFGCFSCSVSMFIDNAVMSL: 2.55 ± 0.066; SGYCYGFVMNDGHSSVRGDE: -0.215 ± 0.74. The result for NNGRYLMGRRKESDLLLGQW reads “inactive”. CLTLMALAKGFGVWGG registered an amyloid nucleation score of -0.176 ± 0.92. Next, IILFINATGRIRSWCDEYGL: 0.681 ± 0.27; GPEHQSVPRAFHQLRYLIYN: “inactive”.

As for RFWFWQPVVYIIRWIRVPLA, the amyloid nucleation score result is “inactive”. Turning to NAFWAILVGPIDPEVSGTYG, the amyloid nucleation score result was “inactive”. Next, LQILLSR: “inactive”; IVEGHLSIIGWYEGNFPHML: 0.145 ± 0.42; PGRLSYLPHMFKYLLLITYT: “inactive”. Regarding KVRSARVRMHHNRYDKEMSG, the amyloid nucleation score result is “inactive”. Next, MSSGLTVSNVL: “inactive”; VHVYCNWKFRDEIRANSTRR: “inactive”; AVNPRQFKFTVDEKSIGRVA: “inactive”.
